Data published in FireProtDB (doi:10.1016/j.jmb.2004.06.010).
Values joined by “and” are separate entries in the source; they are usually repeats but may differ in a detail not shown here. Equal values may be shown once.

B1: Alpha-lactalbumin, P00712 (parent)
chain: MMSFVSLLLVGILFHATQAEQLTKCEVFQKLKDLKDYGGVSLPEWVCTAFHTSGYDTQAIVQNNDSTEYGLFQINNKIWCKDDQNPHSRNICNISCDKFLDDDLTDDIVCAKKILDKVGINYWLAHKALCSEKLDQWLCEKL

Variants of: B1
Conditions: Capra hircus, pH 7, 25 °C, GdnHCl, CD, sodium cacodylate 50 mM, NaCl 50 mM, structure 1HFY, whole UniProt chain shown

Variant | denaturant m value [kcal/mol/M] | denaturant midpoint (higher = more stable) [M] | unfolding free energy [kcal/mol] | denaturant m value (transition: 3) | denaturant midpoint (higher = more stable) (transition: 3) | unfolding free energy (transition: 3)
L129A | 2.29 | 2.38 | 5.45 | 1.69 kcal/mol/M and 0.6 kcal/mol/M |  | 
L115A | 1.72 | 2 | 3.44 | 1.09 kcal/mol/M and 0.63 kcal/mol/M |  | 
W137F | 2.12 | 2.49 | 5.27 |  |  | 
Y122F | 1.82 | 1.76 | 3.2 | 1.3 kcal/mol/M and 0.52 kcal/mol/M | 1.64 M and 2.07 M | 2.13 kcal/mol and 1.08 kcal/mol
I74V |  |  |  | 0.62 kcal/mol/M and 0.75 kcal/mol/M | 2.38 M and 1.04 M | 1.48 kcal/mol and 0.78 kcal/mol
L124A |  |  |  | 2 kcal/mol/M and 0.74 kcal/mol/M | 2.55 M and 1.22 M | 
